We go through 1 protein from article doi:10.1101/060434 (bioRxiv, 2016).

The series concerns the molecule itself. Nature of the series: electron microscopy.

B1: hepatitis E virus-like particle (HEV-LP) of the HEV ORF2 capsid protein, amino acids 368-606 (p239) (domain or fragment, UniProt P33426 368-606, looked up)
chain: IALTLFNLADTLLGGLPTELISSAGGQLFYSRPVVSANGEPTVKLYTSVENAQQDKGIAIPHDIDLGESRVVIQDYDNQHEQDRPTPSPAPSRPFSVLRANDVLWLSLTAAEYDQSTYGSSTGPVYVSDSVTLVNVATGAQAVARSLDWTKVTLDGRPLSTIQQYSKTFFVLPLRGKLSFWEAGTTKAGYPYNYNTTASDQLLVENAAGHRVAISTYTTSLGAGPVSISAVAVLAPHSV
For the protein B1, the binding result is recorded as “binds”.
